B1: Clostridium thermosulfurogenes: xylose isomerase of this donor organism expressed in S. cerevisiae (protein, UniProt P19148 1-439, looked up)
Xylose isomerase: MNKYFENVSKIKYEGPKSNNPYSFKFYNPEEVIDGKTMEEHLRFSIAYWHTFTADGTDQFGKATMQRPWNHYTDPMDIAKARVEAAFEFFDKINAPYFCFHDRDIAPEGDTLRETNKNLDTIVAMIKDYLKTSKTKVLWGTANLFSNPRFVHGASTSCNADVFAYSAAQVKKALEITKELGGENYVFWGGREGYETLLNTDMEFELDNFARFLHMAVDYAKEIGFEGQFLIEPKPKEPTKHQYDFDVANVLAFLRKYDLDKYFKVNIEANHATLAFHDFQHELRYARINGVLGSIDANTGDMLLGWDTDQFPTDIRMTTLAMYEVIKMGGFDKGGLNFDAKVRRASFEPEDLFLGHIAGMDAFAKGFKVAYKLVKDRVFDKFIEERYASYKDGIGADIVSGKADFRSLEKYALERSQIVNKSGRQELLESILNQYLFAE
B2: Arabidopsis thaliana: xylose isomerase of this donor organism expressed in S. cerevisiae (protein, UniProt Q9FKK7 1-477, looked up)
Xylose isomerase: MKKVEFFMLLLCFIAASSLVSADPPTCPADLGGKCSDSDDWQGDFFPEIPKIKYEGPSSKNPLAYRWYNAEEEILGKKMKDWFRFSVAFWHTFRGTGGDPFGAATKYWPWEDGTNSVSMAKRRMRANFEFLKKLGVDWWCFHDRDIAPDGTTLEESNKNLDEVIELAKELQKGSKIKPLWGTAQLFLHPRYMHGGATSSEVGVYAYAAAQVKKAMEVTHYLGGENYVFWGGREGYQTLLNTDMGRELDHLARFFEAAVAYKKKIGFKGTLLIEPKPQEPTKHQYDWDAATAANFLRKYGLIDEFKLNIECNHATLSGHTCHHELETARINGLLGNIDANTGDAQTGWDTDQFLTDVGEATMVMMSVIKNGGIAPGGFNFDAKLRRESTDVEDLFIAHISGMDTMARGLRNAVKILEEGSLSELVRKRYATWDSELGKQIEEGKADFEYLEKKAKEFGEPKVSSAKQELAEMIFQSAM
B3: Pseudomonas syringae: xylose isomerase of this donor organism expressed in S. cerevisiae (protein)
chain: MHPRVLEVTERLIARSRDTRQRYLQLIRGAASDGPMRGKLQCANFAHGVAACGPEDKQSLRLMNAANVAIVSSYNEMLSAHQPYEHFPAQIKQALRDIGSVGQFAGGVPAMCDGVTQGEPGMELAIASREVIAMSTAIALSHNMFDAAMMLGICDKIVPGLMMGALRFGHLPTIFVPGGPMVSGISNKEKADVRQRYAEGKASREELLDSEMKSYHGPGTCTFYGTANTNQLVMEVMGMHLPGASFVNPYTPLRDALTAEAARQVTRLTMQSGSFMPIGEIVDERSLVNSIVALHATGGSTNHTLHMPAIAQAAGIQLTWQDMADLSEVVP
B4: Burkholderia xenovorans: xylose isomerase of this donor organism expressed in S. cerevisiae (protein, UniProt Q13RB8 1-440, looked up)
Xylose isomerase: MSYFEHIPEIRYEGPQSDNPLAYRHYDKSKKVLGKTLEEHLRIAVCYWHTFVWPGVDIFGQGTFRRPWQQAGDAMERARQKADSAFEFFSKLGTPYYTFHDTDVSPEGSSLKEYSENFLRITDYLARKQEDTGIKLLWGTANLFSHPRYAAGAATSPDPEVFAFAATQVRHALDATQRLGGDNYVLWGGREGYDTLLNTDLMRERDQLARFLHMVVDHAHKIGFKGSLLIEPKPQEPTKHQYDYDVATVHGFLLQHGLEKEIRVNIEANHATLAGHSFHHEIATAYALGIFGSVDANRGDPQNGWDTDQFPNSVEELTLAFYEILKHGGFTTGGMNFDSKVRRQSVDPEDLFYGHIGAIDNLALAVERAAVLIENDRLDQFKRQRYAGWDADFGRKILSGDYSLSTLATDALARGLNPQHASGHQELMENIVNQAIYSGR
B5: Bacillus licheniformis: xylose isomerase of this donor organism expressed in S. cerevisiae (protein, UniProt P77832 1-448, looked up)
Xylose isomerase: MFFRNIGMIEYEGADSENPYAFKYYNPDEFVGGKTMKEHLRFAVAYWHTFDADGKDPFGDGTMFRAWNRLTHPLDKAKARAEAAFEFFEKLGVPYFCFHDVDIVDEGATLRETFTYLDQMSSFLKEMMETSHVQLLWNTANMFTHPRYVHGAATSCNADVYAYAAAKVKKGLDIAKELGAENYVFWGGREGYETLLNTDMKLELENLSSFYRMAVEYAREIGFDGQFLIEPKPKEPTKHQYDFDAATTIAFLETYGLKDHFKLNLEANHATLAGHTFEHELRVAALHDMLGSIDANQGDLLLGWDTDEFPTDLYSAVLAMYEILKAGGFKTGGINFDAKVRRPSFADEDLFHAHIAGMDTYAVGLKVASRLLEDKALDQVIEERYESYTKGIGLEIKEGRTDLKKLAAYALENDHIENQSGRQERLKATVNRYLLNALREAPAGKETH
B6: Bacillus subtilis: xylose isomerase of this donor organism expressed in S. cerevisiae (protein, UniProt P0CI80 1-445, looked up)
Xylose isomerase: MAQSHSSSINYFGSANKVVYEGKDSTNPLAFKYYNPQEVIGGKTLKEHLRFSIAYWHTFTADGTDVFGAATMQRPWDHYKGMDLAKMRVEAAFEMFEKLDAPFFAFHDRDIAPEGSTLKETNQNLDMIMGMIKDYMRNSGVKLLWNTANMFTNPRFVHGAATSCNADVFAYAAAQVKKGLETAKELGAENYVFWGGREGYETLLNTDLKFELDNLARFMHMAVDYAKEIGYTGQFLIEPKPKEPTTHQYDTDAATTIAFLKQYGLDNHFKLNLEANHATLAGHTFEHELRMARVHGLLGSVDANQGHPLLGWDTDEFPTDLYSTTLAMYEILQNGGLGSGGLNFDAKVRRSSFEPDDLIYAHIAGMDAFARGLKVAHKLIEDRVFEDVIQHRYRSFTEGIGLEIIEGRANFHTLEQYALNHKSIKNESGRQEKLKAILNQYILEV
modifications: expressed in S. cerevisiae
B7: Escherichia coli: xylose isomerase of this donor organism expressed in S. cerevisiae (protein, UniProt P00944 1-440, looked up)
Xylose isomerase: MQAYFDQLDRVRYEGSKSSNPLAFRHYNPDELVLGKRMEEHLRFAACYWHTFCWNGADMFGVGAFNRPWQQPGEALALAKRKADVAFEFFHKLHVPFYCFHDVDVSPEGASLKEYINNFAQMVDVLAGKQEESGVKLLWGTANCFTNPRYGAGAATNPDPEVFSWAATQVVTAMEATHKLGGENYVLWGGREGYETLLNTDLRQEREQLGRFMQMVVEHKHKIGFQGTLLIEPKPQEPTKHQYDYDAATVYGFLKQFGLEKEIKLNIEANHATLAGHSFHHEIATAIALGLFGSVDANRGDAQLGWDTDQFPNSVEENALVMYEILKAGGFTTGGLNFDAKVRRQSTDKYDLFYGHIGAMDTMALALKIAARMIEDGELDKRIAQRYSGWNSELGQQILKGQMSLADLAKYAQEHHLSPVHQSGRQEQLENLVNHYLFDK
B8: Staphylococcus xylosus: xylose isomerase of this donor organism expressed in S. cerevisiae (protein, UniProt P27157 1-439, looked up)
Xylose isomerase: MSYFDINKVNYEGPKSNNAFSFKYYNPEEKLGNHSMSELLRFSVAYWHTFTADLSDPFGVGVAERDWDSLDEMEKAKARVEAIFEFMEKTRIDYFCFHDVDISPEGASLKESNENLDIIVELIKEKMDQTGKKLLWNTTNNFTHERFVHGAATSSNAEVFAYAAAKVKKSLEIAKKLGSENFVFWGGREGYESLLNTNMKLELDNLATFFKMAKSYADEIGYTGQFLIEPKPKEPTTHQYDTDVATAHAFLQKYDLDKDFKFNIEANHATLAGHTFQHELRYARDNNMLGSVDANQGHPLLGWDTDESTDVYDTTLAMYEILKNGGLAPGGLNFDAKPRRTSFKQEDLILTHIAGMDTFALGLRVAYKMIEDNFFENIMDEKYKSFNEGIGKKIVEGETSLKELEDYAFNINTINNTSDHLEVIKSQINQYILNINNKD
B9: Psudomonas savastanoi: xylose isomerase of this donor organism expressed in S. cerevisiae (protein, UniProt Q48J73 1-438, looked up)
Xylose isomerase: MPYFPAVDKVRYEGPDSDSPLAFRHYDADKLILGKPMREHLRMAACYWHTFVWPGADMFGVGTFKRPWQGSGDPLELAIGKAETAFEFFSKLGIDYYSFHDTDVAPEGSSLKEYRNNFAQMIDQLERHQEQTGIKLLWGTANCFSNPRFAAGAASNPDPEVFAYAATQVFSAMNATQRLKGANYVLWGGREGYETLLNTDLRQEREQLGRFMRMVVEHKHKIGFKGDLLIEPKPQEPTKHQYDYDSATVFGFLQQYGLEKEIKVNIEANHATLAGHSFHHEIATAVSLGIFGSIDANRGDPQNGWDTDQFPNSVEEMTLATYEILKAGGFTNGGYNFDSKVRRQSLDEVDLFHGHVAAMDVLALALERAAAMVQNDKLQQFKDQRYAGWQQPFGKSLLAGEFSLESLAKHAFDKDLNPQAVSGRQELLEGVVNRFIYF
modifications: expressed in S. cerevisiae

Tested on: xylose isomerase activity
Assay: Heterologous xylose isomerase expression in engineered yeast (active yes/no)
Conditions: xylose isomerase of the donor organism expressed in engineered yeast (S. cerevisiae)

Molecule | Active? (yes/no)
Actinoplanes missouriensis: xylose isomerase of this donor organism expressed in S. cerevisiae | No
Bacteroides thetaiotaomicron: xylose isomerase of this donor organism expressed in S. cerevisiae | Yes
Streptomyces diastaticus subsp diastaticus: xylose isomerase of this donor organism expressed in S. cerevisiae | No
Streptomyces rubiginosus: xylose isomerase of this donor organism expressed in S. cerevisiae | No
Thermus thermophilus: xylose isomerase (Type 1) of this donor organism expressed in S. cerevisiae | Yes
B1 | No
B2 | No
B3 | No
B4 | No
B5 | No
B6 | No
B7 | No
B8 | No
B9 | No
